# Reference: article PMC9576733, “Cryo-EM structures of the translocational binary toxin complex CDTa-bound CDTb-pore from Clostridioides difficile” (Nature Communications, 2022)
# Numbering of substitutions follows the chain as printed. Names and notes keep the numbering of the source. Values joined by “and” are separate entries in the source; they are usually repeats but may differ in a detail not shown here. Equal values may be shown once.
# B1: CDTb-pore, wild type (chymotrypsin-activated CDTb oligomer) (complex)
# chain: WEDEDLDTDNDNIPDSYERNGYTIKDLIAVKWEDSFAEQGYKKYVSNYLESNTAGDPYTDYEKASGSFDKAIKTEARDPLVAAYPIVGVGMEKLIISTNEHASTDQGKTVSRATTNSKTESNTAGVSVNVGYQNGFTANVTTNYSHTTDNSTAVQDSNGESWNTGLSINKGESAYINANVRYYNTGTAPMYKVTPTTNLVLDGDTLSTIKAQENQIGNNLSPGDTYPKKGLSPLALNTMDQFSSRLIPINYDQLKKLDAGKQIKLETTQVSGNFGTKNSSGQIVTEGNSWSDYISQIDSISASIILDTENESYERRVTAKNLQDPEDKTPELTIGEAIEKAFGATKKDGLLYFNDIPIDESCVELIFDDNTANKIKDSLKTLSDKKIYNVKLERGMNILIKTPTYFTNFDDYNNYPSTWSNVNTTNQDGLQGSANKLNGETKIKIPMSELKPYKRYVFSGYSKDPLTSNSIIVKIKAKEEKTDYLVPEQGYTKFSYEFETTEKDSSNIEITLIGSGTTYLDNLSITELNSTPEILDEPEVKIPTDQEIMDAHKIYFADLNFNPSTGNTYINGMYFAPTQTNKEALDYIQKYRVEATLQYSGFKDIGTKDKEMRNYLGDPNQPKTNYVNLRSYFTGGENIMTYKKLRIYAITPDDRELLVLSVD
# notes: CDTb, Clostridioides difficile, UniProt O32739; cloned as amino acids 40-876 (without signal peptide); domains after cleavage are printed as 1' (W214-A296, domain 1 without the pro-peptide) to 4 (T617-D876); Heptameric pore; also found as a di-heptamer (14 chains); also called WT CDTb; NSS-loop
# B2: CDTb F774L mutant (chymotrypsin-activated oligomer) (complex)
# chain: B1 chain with F561L
# notes: CDTb, Clostridioides difficile, UniProt O32739; cloned as amino acids 40-876; domains after cleavage printed as W214-D876; Prepared by the same protocol as wild type, without LMNG pretreatment; source: E. coli BL21 Star (DE3), purified as wild type (Glutathione Sepharose 4B), alpha-chymotrypsin, LMNG
# B3: CDTb F774G mutant (chymotrypsin-activated oligomer) (complex)
# chain: B1 chain with F561G
# notes: as for B2
# Experiments:
# [1] = biological target: CDTb-pore, wild type (chymotrypsin-activated CDTb oligomer) (Clostridioides difficile) (UniProt O32739); assay: SPR; CDTb-pore (WT, PSS, SPS) amine-coupled on SPRi-Biochip CS-HD, CDTa injected; room temperature, 50 uL/min; pH 5.5, 10 mM MES, 0.15 M NaCl, 1 mM EGTA, 0.005% Surfactant P20, 5 mM CaCl2; 1:1 model; average of two measurements
# [2] = biological target: CDTb-pore, wild type (chymotrypsin-activated CDTb oligomer) (Clostridioides difficile) (UniProt O32739); assay: cryo-EM structure; CDTa without His-tag added to purified WT CDTb-pore at 3-fold molar excess, unbound CDTa not removed; 10 mM HEPES pH 7.5, 1 mM CaCl2, 0.003% LMNG; classes: di-heptamer, long pore, short pore
# [3] = biological target: CDTb-pore PSS-loop mutant (NSS > PSS) (Clostridioides difficile) (UniProt O32739); assay: SPR; CDTb-pore (WT, PSS, SPS) amine-coupled on SPRi-Biochip CS-HD, CDTa injected; room temperature, 50 uL/min; pH 5.5, 10 mM MES, 0.15 M NaCl, 1 mM EGTA, 0.005% Surfactant P20, 5 mM CaCl2; 1:1 model; average of two measurements
# [4] = biological target: CDTb-pore SPS-loop mutant (NSS > SPS) (Clostridioides difficile) (UniProt O32739); assay: as above
# [5] = biological target: CDTb-pore PSS-loop mutant (NSS > PSS) (Clostridioides difficile) (UniProt O32739); assay: SPR; CDTb-pore (WT, PSS, SPS) amine-coupled on SPRi-Biochip CS-HD, CDTa injected; room temperature, 50 uL/min; pH 5.5, 10 mM MES, 0.15 M NaCl, 1 mM EGTA, 0.005% Surfactant P20 (no calcium); 1:1 model; average of two measurements
# [6] = biological target: CDTb-pore SPS-loop mutant (NSS > SPS) (Clostridioides difficile) (UniProt O32739); assay: as above
# [7] = biological target: CDTb-pore, wild type (chymotrypsin-activated CDTb oligomer) (Clostridioides difficile) (UniProt O32739); assay: as above
# [8] = biological target: CDTb-pore PSS-loop mutant (NSS > PSS) (Clostridioides difficile) (UniProt O32739); assay: SPR; CDTb-pore (WT, PSS, SPS) amine-coupled on SPRi-Biochip CS-HD, CDTa injected; room temperature, 50 uL/min; pH 7.4, 10 mM HEPES, 0.15 M NaCl, 1 mM EGTA, 0.005% Surfactant P20, 5 mM CaCl2; 1:1 model; average of two measurements
# [9] = biological target: CDTb-pore SPS-loop mutant (NSS > SPS) (Clostridioides difficile) (UniProt O32739); assay: as above
# [10] = biological target: CDTb-pore, wild type (chymotrypsin-activated CDTb oligomer) (Clostridioides difficile) (UniProt O32739); assay: as above
# [11] = biological target: CDTb-pore PSS-loop mutant (NSS > PSS) (Clostridioides difficile) (UniProt O32739); assay: SPR; CDTb-pore (WT, PSS, SPS) amine-coupled on SPRi-Biochip CS-HD, CDTa injected; room temperature, 50 uL/min; pH 7.4, 10 mM HEPES, 0.15 M NaCl, 1 mM EGTA, 0.005% Surfactant P20 (no calcium); 1:1 model; average of two measurements
# [12] = biological target: CDTb-pore SPS-loop mutant (NSS > SPS) (Clostridioides difficile) (UniProt O32739); assay: as above
# [13] = biological target: CDTb-pore, wild type (chymotrypsin-activated CDTb oligomer) (Clostridioides difficile) (UniProt O32739); assay: as above
# [14] = biological target: the molecule itself; assay: density gradient ultracentrifugation; CDTb after alpha-chymotrypsin, 0.03% LMNG 1 h 37 °C (LMNG after or before chymotrypsin); 10-30% glycerol, 50 mM HEPES pH 7.5, 100 mM NaCl, 1 mM CaCl2, 0.003% LMNG, 230,139 x g 16 h; A280 of fractions; protomers to heptamer and heptamer to di-heptamer
molecule,measurement,setting,value
CDTa (enzymatic A-component of the Clostridioides difficile binary toxin CDT) (CDTa injected),kon,[1],152000 M⁻¹ s⁻¹
CDTa (enzymatic A-component of the Clostridioides difficile binary toxin CDT) (enzyme),stoichiometry N,[2],1
same,Kd,[3],2.29 nM
same,koff,[3],0.000376 s⁻¹
same,kon,[3],164000 M⁻¹ s⁻¹
same,Kd,[4],2.69 nM
same,koff,[4],0.000326 s⁻¹
same,kon,[4],121000 M⁻¹ s⁻¹
same,Kd,[1],2.86 nM
same,koff,[1],0.000436 s⁻¹
same,Kd,[5],2.27 nM
same,koff,[5],0.00132 s⁻¹
same,kon,[5],584000 M⁻¹ s⁻¹
same,Kd,[6],1.61 nM
same,koff,[6],0.000709 s⁻¹
same,kon,[6],441000 M⁻¹ s⁻¹
same,Kd,[7],1.53 nM
same,koff,[7],0.000763 s⁻¹
same,kon,[7],498000 M⁻¹ s⁻¹
same,Kd,[8],4.93 nM
same,koff,[8],0.00108 s⁻¹
same,kon,[8],220000 M⁻¹ s⁻¹
same,Kd,[9],1.89 nM
same,koff,[9],0.000521 s⁻¹
same,kon,[9],276000 M⁻¹ s⁻¹
same,Kd,[10],3.27 nM
same,koff,[10],0.000619 s⁻¹
same,kon,[10],189000 M⁻¹ s⁻¹
same,Kd,[11],55.1 nM
same,koff,[11],0.00567 s⁻¹
same,kon,[11],103000 M⁻¹ s⁻¹
same,Kd,[12],26.2 nM
same,koff,[12],0.00304 s⁻¹
same,kon,[12],116000 M⁻¹ s⁻¹
same,Kd,[13],28.6 nM
same,koff,[13],0.00413 s⁻¹
same,kon,[13],144000 M⁻¹ s⁻¹
B1,stoichiometry N,[14],14 and 7
B2,stoichiometry N,[14],14 and 7
B3,stoichiometry N,[14],14 and 7
